According to patent US6100378A, “Enhancement of the pro-fertility action of a molecule involved in a sperm-egg binding” (BioPore, Inc., priority 1999, dated 2000):
“And” between values parts separate entries of the source, which are not always exact repeats. Equal entries are not always repeated. Bridge positions count the residues as written; N and C are the ends. Ends that are not written are not given here.

Legend:
[1] = tested on: frozen-thawed rooster sperm bound to an egg-membrane substrate; assay: BioPore Sperm-Binding Assay: percentage of sperm binding to an egg-membrane substrate; type: cell-based; conditions: 10 minutes at 37° C. exposure, 2 million sperm/well
Method: All three peptides were incubated at 0, 20 and 80 ng peptide/million sperm prior to evaluation. Ration % bound calculated as: % bound with Peptide / % bound for Control; and
We used the BioPore® Sperm-Binding Assay (Amann et al., 1999) to compare. percentage of sperm binding to an egg-membrane substrate (similar to Barbato et al., 1998) after brief in vitro exposure to three concentrations of a prior art peptide (Hammerstedt et al., 1997), representing each of two lots of peptide SEQ ID NO: 4 (after disulfide linking the cystine residues) or three concentrations of SEQ ID NO: 1 (after disulfide linking the cystine residues). Briefly, cryopreserved rooster semen (Gill et al., 1996) from broiler males (Barbato et al., 1998) was thawed, deglycerolated (Gill et al., 1996), and adjusted to provide a concentrated suspension of sperm in an appropriate salts buffer. We used one containing: 0.600 g sodium glutamate, 0.210 g potassium glutamate, 0.100 g glucose, 0.070 g sorbitol, 0.035 g magnesium sulfate, 0.210 g potassium acetate, 0.050 g potassium citrate, 0.700 g di-potassiumphosphate, 0.160 g mono-potassium phosphate, 0.800 g di-sodium phosphate, 0.100 9 potassium hydroxide, 0.300 g N,N -bis[2-hydroxyethyl]-2-aminoethanesulfonic acid, 0.400 g N-[2-hydroxyethyl]piperazine-N'-[2-ethanesulfonic acid], and 0.400 g N-tris[hydroxymethyl]methyl-2-aminoethanesulfonic acid, dissolved in distilled water to make 100 ml (Tajima et al., 1989). Aliquots of this suspension were placed in tubes containing one of the three peptide sequences at 0, 20 or 80 ng per million sperm. After mixing and 10 minutes incubation at 37° C., the suspensions were further diluted and assayed using 2 million sperm/well in the microwell assay plates. Plates were incubated at 32° C. for 60 min, after which unbound sperm were decanted, the wells washed, and the DNA in sperm bound to the egg-membranesubstrate in the microwell plates quantified (Barbato et al., 1998). […] With SEQ ID NO: 1, however, binding for suspensions exposed to either 20 or 80 ng/million sperm was greater, namely 1.20 and 1.22 the control value.

[2] = tested on: White Leghorn hens inseminated with frozen-thawed rooster sperm; assay: Fertility trial: artificial insemination of hens with frozen-thawed rooster sperm exposed to peptide; type: in vivo, chicken
Source text: Each bar based on >425 eggs.
To compare fertility achieved after exposure of rooster sperm to SEQ ID NO: 4 and SEQ ID NO: 1, we used cryopreserved semen as in Example 1. To facilitate detection of benefit from peptides, we used a limited number of sperm for each artificial insemination. Pooled, deglycerolated semen (1 billion sperm/ml; at 0-4C.), in salts buffer as described in Example 1, was dispensed into tubes containing SEQ ID NO: 4 or SEQ ID NO: 1 to make nine suspensions: 0.0 (control), 0.2, 0.5, 1.0 or 2.0 μM and mixed. Artificial insemination of White Leghorn hens (40/group) was within 1 hour, and used 50 μl (50 million sperm). Eggs were collected daily, stored ≤7 d at 14C., incubated, and candled on day 7 (eggs with viable embryo were classed as fertile). Data resulting from four inseminations at 4-day intervals are shown (FIG. 2). It was concluded that both 0.2 and 0.5 μM SEQ ID NO: 4 improved fertility as did 0.2, 0.5, 1.0 and 2.0 μM SEQ ID NO: 1. […] The increase in fertility (above the control value) with the best concentration of SEQ ID NO: 1 (15.4 units at 2.0 μM) was 2.0× that with SEQ ID NO: 4 (7.8 units at 0.5 μM). Clearly, brief in vitro exposure of sperm to SEQ ID NO: 1 rather than SEQ ID NO: 4 before artificial insemination gave a greater increase in percentage of fertilized eggs over a greater range in concentration.

[3] = 20 ng peptide/million sperm, SEQ ID NO: 4 as 2 preparations (lots)

CQSLQEYLAEQNQRQLESNKIPEVDLARVVAPFMSNIPLLLYPQDRPRSQPQPKANEDVC (disulfide 1-60) [SEQ ID NO: 4, reference compound]
binding relative to the value for the non-peptide control (ratio % bound with peptide / % bound for control) [1, 3]: 1.13 × and 1.17 ×

B1: Cys-Gln-Ser-Leu-Gln-Glu-Tyr-Leu-Ala-Glu-Gln-Asn-Gln-Arg-Gln-Leu-Glu-Ser-Asn-Lys-Ile-Pro-Glu-Val-Asp-Leu-Ala-Agr-Val-Val-Ala-Pro-Phe-Met-Ser-Asn-Ile-Pro-Leu-Leu-Leu-Tyr-Pro-Gln-Asp-Arg-Pro-Arg-Ser-Gln- … (peptide)
chain: CQSLQEYLAEQNQRQLESNKIPEVDLAAVVAPFMSNIPLLLYPQDRPRSQPQPKANEDVCVNHHHHHH
binding relative to the value for the non-peptide control (ratio % bound with peptide / % bound for control) [1, 3]: 1.20 ×
binding relative to the value for the non-peptide control (ratio % bound with peptide / % bound for control) ([1]; 80 ng peptide/million sperm): 1.22
increase in fertility (above the control value) with the best concentration ([2]; 2.0 μM peptide, percentage of fertilized eggs, 50 million sperm, four inseminations at 4-day intervals): 15.4 units
increase in fertility with best concentration relative to that with SEQ ID NO: 4 ([2]; SEQ ID NO: 1 at 2.0 μM vs SEQ ID NO: 4 at 0.5 μM): 2.0 ×
fold range of concentrations of benefit to fertility ([2]; tested 0.2, 0.5, 1.0, 2.0 μM): ≥ 10 fold
